According to publication PMC9103930:

How the values were obtained:
[1] = molecular target: Deinococcus grandis Dps tailless variant ∆N (lacking the first 46 residues) (Deinococcus grandis); assay: SEC + other: dynamic light scattering; Superdex 200 10/300 GL calibrated with protein standards, and DLS at 25 °C; 200 mM MOPS pH 7.0, 200 mM NaCl; WT also in 50 mM MOPS pH 7.0 with 50-480 mM NaCl; apparent molecular mass and hydrodynamic diameter of the oligomer
[2] = molecular target: Deinococcus grandis Dps tailless variant ∆N (lacking the first 46 residues) (Deinococcus grandis); assay: SAXS; solution SAXS (batch and SEC-SAXS), 50 mM MOPS pH 7.0 with 50-480 mM NaCl (WT) or 50 and 230 mM NaCl (∆N); ab initio models (GASBOR, DAMMIN) with P23 symmetry set
[3] = molecular target: Deinococcus grandis Dps, wild type (Deinococcus grandis); assay: as above

| stoichiometry N [1] | stoichiometry N [2] | stoichiometry N [3] | Substance |
| --- | --- | --- | --- |
| 12 | 12 |  | Deinococcus grandis Dps tailless variant ∆N (lacking the first 46 residues) (from UniProt A0A100HLL5 47-205) (domain or fragment) |
|  |  | 12 | Deinococcus grandis Dps, wild type (from UniProt A0A100HLL5 1-214) (natural protein) |
